Consider 23 sequences from a protein production outcome set (Wang et al. 2014).

The series can be described thus: label from the status in PepcDB records.

Turning to “MPSSAFPDTRMTLACRRMAGGASALPSFRMGAGLAFQPGLENAMSTVQDYIVADIGLADYGRKELDIAETEMPGLMSCRSELGETKPLKGARISGSLHMTIQTAVLIETLTALGAEVRWASCNIFSTQDHAAAAIAASGVPVFAVKGESLTEYWDYTDRIFQWTDGGQSNMILDDGGDATMYILLGARAEAGENVLVNPSSEEEEILFAQIKKRMAATPGFFTKQRDAIKGVTEETTTGVNRLYQLSQKGLLPFPAINVNDSVTKSKFDNKYGCKESLVDGIRRATDVMMAGKVAVVCGYGDVGKGCAASLIGAGARVKVTEVDPICALQAAMDGFEVVRLEDVVKTADIFITTTGNKDVIRIEHMREMKDMAIVGNIGHFDNEIQVVALKNLKWVNIKPQVDMIEFPAGNRMILLSEGRLLNLGNATGHPSFVMSASFTNQVLAQIELFTKPDAYKNQVYVLPKHLDEKVARLHLEKLGVRLTELSDEQASYIGVTPSGPFKADHYRY”, the protein production entry is “failed”.

Take “MPSSILSESMIQAFFWSLITIGMYFITQKLYRRWPFWWLMPLALTPILVASVVLLLHVNYQDYFRGTKWLVLLIGPATVAFAIPIYEKRALIRQHWPVLLIGVIVGSFTAIASSWGLAILLGLDDNLRLSLLPRSISTPFAIEISRGIGAAPDLTAIFVIVTGILGAILGEFILSRLPFNSALARGALLGVGAHAAGTAQAHKIGNTEGAIASLAMILVGLFNILLLPLISYLLK”: the protein production entry is “failed”.

“MPTCAPAMVTTLYETPEHACLMFSDLVDDHDDQSVQTNQFLVVDHGHGALIDPGGNMTYNALYLAMNQYFPPKQLDYVLASHADPDIVASAGRWLTSSNCNILISRVWERFLPHFCNVGKTDGRILPIPDTGMAIPIGQSHLLAVPAHFLHSEGNFQFYDPVSRILFSGDLGASMVHAEIAAAPVEDFDAHIPLMAPFHRRYMSGNRVCRLWAEMVRGLEIEWIVPQHGRAFHGPAMVRRFIDWVETLTCGIDLMTQETFRLPALPRVAAGAPLRTPQP”: the protein production result is “failed”. “MPTDRSTPATRHRLGGWMASEEAHMAAYREKIAGEARAHAGERLRTPAVQELARLFDDNAVLRMSLTRAIDEALESGRKLGYASIGELMTVIDHLMTYTPPFSESSLIVCPLNAFLDWPMCMPSGHAVFRDAAVNAHLKQVLNVWCDFLGGPHSCTHLDTSAPDGWFCDEARERLGLSQFQYQEDQPHWGFASWNDFFTRRFRADARPVTAPGDPHVIVSACEAQPYHAESNLKIRDKFWIKGQPYSLRDIFTPARLPLAERFVGGDLYQAYLSAYNYHRWHAPVRGTVTHAYRVDGTYYSVAEAEGPDPAGLNDSQGYMTAVAARAVIAIDCDDPGIGTVVGVFVGMGDVSSCVIEVMPGQRIDKGEEIGYFQYGGSTYCLLFEPGVIDHFVHAPPFDDDTPVVQVNAPVAIAR”: the protein production result is “failed”. Turning to “MPTDYIRNGVLYVTENYLCFESSKSGSSKRNKVIKLVDITDIQKYKVLSVLPGSGMGIAVSTPSTQKPLVFGAMVHRDEAFETILSQYIKITSAAASGGDS”, the protein production entry was “failed”. As for “MPTFNPELHAQTLNSERAYFVQPDADPAFTPHIGALVEMLTYARLTTLQAVEGLPEDQLWATAPGFANSIGTLLAHIAAVERVYHVLSFQGRDVTPEDDGAAYWGLTMGKEGTAPARLPTLDELRAELADARAETLRVFAAKDDAWLAEPLGPGWANQHWAWFHVMEDEVNHRGQLRLLRQVLAPEEGG”, the protein production entry is given as “not failed”. For the sequence “MPTIEDRYARLDAARWLAALAVVLLHSAAQTVSDPAAYGSHAWLAANLYDSAAHWCVPVFVMVSGALLLDPDQPHDARRFYSRRMARVCAPLLFWTLFYLAWRTALDWWDDGRLDFSFWPRKVAEGAPYYHLWYLYMIVGLYLFAPLVRLLYARSQPRARALWVVGILGVAVLDALYRRALGGGNGLFLTWFLPYLGYFVAGRLIFDGELRMPRPGLVLAASVAATAWGVSALSDSRALDLYFYDYFSVTVPLMSLAAFQLIVGSPRLPALPALPALAPLTFGIYLIHPLFLDLAHRIGAARAWRPDAWGVPAITAAVFALSALASWMLRRHRLTRRLV”, the protein production result is on record as “failed”. Take “MPTLDALTPIFRQVFDDDSIVLTRETSANDIDAWDSLSHMNLIVSLEVHYKIKFALGELQKLKNVGDLADLVDKKLARKLEHHHHHH”: the protein production entry is given as “failed”.

Take “MPTLLMITPENLEIKRFRAYQLNNFMQLTMPYLAGFVPKEYDIRLLDEHTEPIIFEKFDLVAITVNTPNAPYAYAISKKFRELGSWVALGGPHVTLNPEEAALHCDTIFIGEAEETWPQFLNDFLCKKAQKVYTSSRAPSLAGLPIPRRDLIVGNRFISGAVFASRGCPHNCSYCSLKKIYHNTFRTRPVDEVIKDIASMPNKYFVFWDDNFFADPSYTKALLKDLAKLNKKWAAQVTAHSCEDEELLRLAKSAGCLYLFLGLESFSEQGLKDANKSFNKIEQYGKIADKLHRHGISIQAGIVFGFDSDTPDVFETTLKACNDIGIDGVTASILTPFPGTGIYDQYKNEGRLLDVGWNYYNGKTRVAYVPKQMSPEELLNGYNEFRRKFYSWKSIIKRICKSRVNIFYNLAMNYGYRQAYRNFAKLDIGDSKGMNIFEQLI”: the protein production entry is “failed”. Consider “MPTNAGTSLSSYKHIVAIGTTVKSESLESAAYEIPRKRKMRSDSAAVSGNSVSTPKKLKSHLPSSVPNPGMSEKEVVEDSNEILRYPVNLAVSDCLGTKSKWSPRDEEQMRAVKEALHVSKAPSTILCREDEQIRIFEFVKGCIDQQKAGSLYICGCPGTGKSLSMEKVVQQVGDWSTQAGLPPVDTLSVNCTSLSKTTDIFSKILGEIKPGKNANTNSSPLQHLQNLFSQKQESSSSRMMLIIADEMDYLITKDRGVLYDLFMLTTLPFSRCILIGVANAIDLADRFLPKLKSLNCKPMVITFRAYSKDQILRILQERLRVLSYVAFQPKALELCARKVAAASGDMRKALCVCRSALEILEIETRGSTGPESQGPTPDDSVVRMDHMAAALSKTFKSPVVETIQSLPQHQQIIICAAAKAFRGSKKDATVGELNKLYLEICKSWMISPAGITEFTNMCTVLNDQGILKVGQARRDKLKRVSLRVDESDITFALQVNSLFILFFANP”, for which the protein production result was “failed”.

Turning to “MPVDLQALYPRLIHLMLDTVFVVDRDNQIVFVSDACKTLLGYEACELIGTPITRYMHPDDLAATRASIMRVMNGQPHYDFCNRYLRKDGSVVHILWAACWSEEAQARIGVARDVTAQRKAEDELRFLAHHDPLTRLANRAMFNERLDTALAAARRHNRRLALLFLDINDFKQINDNHGHSVGDRVLCTLARRLERCVGAAGTVARMGGDEFTVLLPDCPSPEAIATHVQHILAVMAEPLDAEFAGIDAPSCSIGVARFPEDGNDADMLLRHADGHMYRIKRQRAATG”, the protein production entry was “failed”. Regarding “MPVIHCNKDDSQEASSQTPFLPLGFVFTKLYICLTIYSGGDDESMDGDINKYLVLAIIGVGGLSGLVASQSTGRNFPPATANKTVGR”, the protein production entry is “failed”.

“MPVKLATALSNNLFPALDSQLRAGRHIGIEELENHVFLMDFQEVLEEFYSRYNVELIRAPEGFFYLRPRSTTLIPRSVLSELDMMVGKILCYLYLSPERLAHEGIFSQQELYEELLSLADESKLLKLVNQRSTGSDLDRQKLQEKVRTSLNRLRRLGMIYFMGNDSSKFRITESVFRFGADVRSGDDAREAQLRMIRDGEAMPVEGSLSLKDDSDDNDRTDDTAPETGEDELEHHHHHH”: the protein production entry is on record as “failed”. Consider “MPVLVASDLDRTLIYSAAALGLTMPDLRAPRLLCVEVYESKPLSYLTETAAQLLTDLGDSALFVPTTTRTRKQYQRINLPGPAPKYAICANGGHLLVDGVSDPGWHARVTARLADECASLAEVRDHLTNTADPLWVRKHRVAEDLFAYLVVERDLLPQDWVKELAVWAENRGWTVSLQGRKIYAVPKPLTKSAAMHEVARRTGAELTLAAGDSLLDADLLLAADRGWRPGHGELADSGWTAPTISALPERGVLAGERILREFLRAVRPAR”, for which the protein production result is given as “failed”. With “MPVNQYQQEVGETLEHFAVGQMPDVKFLEGRYCSVEHIDARKHLNDIIDFYWKNAVPSDWTYMFDQPFETAEAVQERLQDYEKSENPYFFAIRDKETDKVLGTFSLMRIDPKNRVLEMGRVIYAPALQKTSAATEAQYLVMNYVFENLGYRRYEWKCDHLNQSSGNAAKRLGFTYEGTFRKHVVYKGRTRDTDWFSVIDQDWPKLKKRFENWLSPKNFDKTGQQIKALKDC”, the protein production entry is recorded as “failed”. As for “MPVQNRIHKGINMNSYAHLNVEKRGHTAVVTIDNPPANTWNRASLTALKQLVADLNADRDIYALVITGQGEKFFSAGADLNLFADGDKKVATEMTLLFGEAFEALSAFRGVSIAAINGYAMGGGLECALACDIRIAEEQAQMALPEAGVGLLPCAGGTQNLPWLVGEGWAKRMILCGERVNAATAERIGLVEQVVAKGEALAAALKLAEGVARQSPSSVGVCKQLVQAARTQPPAWNLIKEREAFIKLFDTQDQAEGTRAFLEKRAPNWKNA”, the protein production entry is “failed”. For “MPVQTYPVDIVIRAYDRPGLLRDVSQVLLNEKINVLAVNTRSNKEDNTALMSLTIEIPGLDALGRLLGRISQLPNIIETRRNRTPLEHHHHHH” the value was “failed”. In the case of “MPVRASIEPLTWENAFFGVNSAIVRITSEAPLLTPDALAPWSRVQAKIAASNTGELDALQQLGFSLVEGEVDLALPVNNVSDSGAVVAQETDIPALRQLASAAFAQSRFRAPWYAPDASGRFYAQWIENAVRGTFDHQCLILRAASGDIRGYVSLRELNATDARIGLLAGRGAGAELMQTALNWAYARGKTTLRVATQMGNTAALKRYIQSGANVESTAYWLYR” it was “not failed”; in that of “MPVTDVKHDLDTLTLTITAEFAAPVTRIWQIYADPRQLEKVWGPPSHPATVVDHDLRPGGRVTYFMTGPDGEKYAGYWEITAVDEPHSFSFLDGFADEDFNPNTDLPVSTNVYTFTEHDGGTRATYVGTYASAEALQQVLDMGVIEGASSAINQIDALLTA”, “failed”. Turning to “MPVTEKDLAEDAPWKKIQQNTFTRWCNEHLKCVNKRIGNLQTDLSDGLRLIALLEVLSQKRMYRKYHQRPTFRQMQLENVSVALEFLDRESIKLVSIDSKAIVDGNLKLILGLVWTLILHYSISMPVWEDEGDDDAKKQTPKQRLLGWIQNKIPYLPITNFNQNWQDGKALGALVDSCAPGLCPDWESWDPQKPVDNAREAMQQADDWLGVPQVITPEEIIHPDVDEHSVMTYLSQF”, the protein production result is “failed”. For the sequence “MPYKLTLEACTKCGTCAEACTMYLGSGRKKIYSPVYRSDMLRKIYKKHFTLTGKLFGPLIGAKDPTEDDINALAESAYRCTVCRRCALACPFGLDNGLITRETRKIFADLGILEHHHHHH”, the protein production result is on record as “not failed”. Consider “MPYLPEVIIILVLIALNGIFAMSEFALVSAKKIRLRQKAEKGDAGAETALKLSNEPTAFLSTVQIGITLVGIFAGAFGGATIAGELDTYLRDFPALARYSATLSITLVVLIITYLTLILGELVPKQLALNNAETIASRVAKPMFFLSLMARPLVLVLSYSTDAVLRLLRVRKIIGPPVTEEEIKIMIEEGTEAGVFERAEMSMIEGVFDIGDRRVESLMTHRSDIIALDLDDPVDENLKKMIASGRSNFPVYERDLDDVIGIVSVKDVLAKLVESGKVDIRASVTKPLFAPEAITILKLLESFKETGMHIALITDEYGSVQGIITLHDILEAIVGDVRSLGEPEEEQITVLENGSWLIDGDTPVNKLKYVLSVDSFPGEEQGYYLTIAGLIMYILQRIPKTGDHMEFNGLRYEVVDMDGIRIDKVMVTKVPEISKD”, for which the protein production entry was “not failed”.

“MQAGSMSAPKQLVIIGAGEFAQIACEYFQHDSHYTVVAFSVERDFLLQHTLAELPVVAYEELEQRYPPEQYEVFVAIPATRLNRLRTRFFQDVVQRGYRCATYVSSRAFVWHNAQIGANCFIFEGNVIQPFTRIGDNCVLWSGNHIGHRTAVRDHVFIASHAVISGYCEIGQGSFIGVNATLSDKVHIAANNIIGAGALVTRHTEAERVYVGSPARAVAGRSSFDVEL”: the protein production entry is “failed”.
